Data published in patent publication US20230192896A1 (published 2023).
Residue numbers refer to the chain shown, from its start. Each block holds one binder with its values, some of them ahead of it.

What was measured:
[1] = target: free FIXa (activated Factor IX) (UniProt P00740 47-191; P00740 227-461); assay: BLI
FX zymogen = target: T1, FX zymogen (UniProt P00742 41-179; P00742 183-488); assay: BLI
T1 chain 1: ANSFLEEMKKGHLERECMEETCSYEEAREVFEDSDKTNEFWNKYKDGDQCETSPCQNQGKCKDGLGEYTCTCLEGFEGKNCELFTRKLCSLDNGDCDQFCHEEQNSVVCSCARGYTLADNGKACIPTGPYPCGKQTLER
T1 chain 2: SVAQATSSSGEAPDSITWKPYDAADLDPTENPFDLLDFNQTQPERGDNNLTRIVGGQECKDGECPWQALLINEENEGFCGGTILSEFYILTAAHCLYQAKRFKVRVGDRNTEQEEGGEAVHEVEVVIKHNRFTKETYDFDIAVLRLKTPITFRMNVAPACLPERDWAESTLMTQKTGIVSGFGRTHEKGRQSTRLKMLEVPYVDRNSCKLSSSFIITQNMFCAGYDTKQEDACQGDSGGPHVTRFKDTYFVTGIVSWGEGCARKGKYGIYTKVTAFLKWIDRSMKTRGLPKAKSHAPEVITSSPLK

- Kd [1]: 17.5 nM
B1: BIIB-9-446 (antibody, V domains shown)
VH: QVQLVQSGAEVKKPGSSVKVSCKASGGTFSSYAISWVRQAPGQGLEWMGGIIPIFGTASYAQKFQGRVTITADESTSTAYMELSSLRSEDTAVYYCARGLEVGYYGYFDYWGQGTLVTVSS
VL: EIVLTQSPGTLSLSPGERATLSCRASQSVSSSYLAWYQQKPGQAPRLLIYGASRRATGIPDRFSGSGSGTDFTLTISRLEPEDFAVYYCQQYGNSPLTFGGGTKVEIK

- Kd (FX zymogen): 16.1 nM
B2: BIIB-12-1290 (antibody, V domains shown)
VH: QVQLVQSGAEVKKPGASVKVSCKASGYTFTSYYMHWVRQAPGQGLEWMGIINPGGGSTSYAQKFQGRVTMTRDTSTSTVYMELSSLRSEDTAVYYCAREGGRYVRGMDVWGQGTTVTVSS
VL: DIQMTQSPSSVSASVGDRVTITCRASQGISSWLAWYQQKPGKAPKLLIYAASSLQSGVPSRFSGSGSGTDFTLTISSLQPEDFATYYCQQGFSFPFTFGGGTKVEIK

- Kd (FX zymogen): 14.7 nM
B3: BIIB-12-1312 (antibody, V domains shown)
VH: QVQLVESGGGVVQPGRSLRLSCAASGFTFSSYGMHWVRQAPGKGLEWVAVISYDGSNKYYADSVKGRFTISRDNSKNTLYLQMNSLRAEDTAVYYCAKGMGHWIDYWGQGTLVTVSS
VL: B2 VL with G91A, F92S, F96P

- Kd (FX zymogen): 26.3 nM
B4: BIIB-12-895 (antibody, V domains shown)
VH: B2 VH with G54S, E99G, R102Y, Y103K, V104S, M107I, V109Y, T115L
VL: DIQMTQSPSSVSASVGDRVTITCRASQGISSWLAWYQQKPGKAPKLLIYAASSLQSGVPSRFSGSGSGTDFTLTISSLQPEDFATYYCQQASSFPFTFGGGTKVEI

- Kd [1]: 11.3 nM
B5: BIIB-9-625 (antibody, V domains shown)
VH: QLQLQESGPGLVKPSETLSLTCTVSGGSISSSSYAWGWIRQPPGKGLEWIGSIYYSGSTYYNPSLKSRVTISVDTSKNQFSLKLSSVTAADTAVYYCARDRGWYTEVLDIWGQGTMVTVSS
VL: B2 VL with V11L, G28S, W32Y, A34N, G91S, F92D, S93T, F94D, F96P

- Kd (FX zymogen): 38.6 nM
B6: BIIB-12-1323 (antibody, V domains shown)
VH: QVQLVQSGAEVKKPGASVKVSCKASGYTFTSYYIHWVRQAPGQGLEWMGIINPSGGSTSYAQKFQGRVTMTRDTSTSTVYMELSSLRSEDTAVYYCARGRRFPRGLDYWGQGTLVTVSS
VL: B2 VL with G91A, F92N, S93I

- Kd (FX zymogen): 56.8 nM
B7: BIIB-12-1330 (antibody, V domains shown)
VH: QVQLVESGGGVVQPGRSLRLSCAASGFTFSSYGMHWVRQAPGKGLEWVAVISYDGSNKYYADSVKGRFTISRDNSKNTLYLQMNSLRAEDTAVYYCAKGGSARWINIWGQGTTVTVSS
VL: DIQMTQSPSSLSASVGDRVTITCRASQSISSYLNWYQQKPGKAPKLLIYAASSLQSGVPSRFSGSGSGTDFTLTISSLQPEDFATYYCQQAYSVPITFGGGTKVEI

- Kd (FX zymogen): 23.1 nM
B8: BIIB-12-928 (antibody, V domains shown)
VH: QVQLVEFGVGVVQPGRSLRLSCAASGFTFSSYGMHWVRQAPGKGLEWVAVISYDGSNKYYADSVKGRFTISRDNSKNTLYLQMNSLRAEDTAVYYCAKGGTYLDTWGQGTLVTVSS
VL: EIVLTQSPGTLSLSPGERATLSCRASQSVRSSYLAWYQQKPGQAPRLLIYGASSRATGIPDRFSGSGSGTDFTLTISRLEPEDFAVYYCQQYVRFPLTFGGGTKVEIK

- Kd [1]: 1.79 nM
B9: BIIB-9-884 (antibody, V domains shown)
VH: QLQLQESGPGLVKPSETLSLTCTVSGGSISSSDYYWGWIRQPPGKGLEWIGSIYYSGSTYYNPSLKSRVTISVDTSKNQFSLKLSSVTAADTAVYYCARSPRHKVRGPNWFDPWGQGTLVTVSS
VL: B8 VL with R30S, V93H, R94L, F95L, L97P

- Kd (FX zymogen): 85.6 nM
B10: BIIB-12-1288 (antibody, V domains shown)
VH: QVQLVQSGAEVKKPGASVKVSCKASGYTFTSYYMHWVRQAPGQGLEWMGIINPSGGSTSYAQKFQGRVTMTRDTSTSTVYMELSSLRSEDTAVYYCARGGANDYGSSSRWWYFDLWGRGTLVTVSS
VL: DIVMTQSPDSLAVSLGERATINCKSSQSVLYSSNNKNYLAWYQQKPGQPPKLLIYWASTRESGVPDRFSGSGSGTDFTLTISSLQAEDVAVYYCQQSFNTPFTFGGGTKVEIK

- Kd [1]: 233 nM
B11: BIIB-9-627 (antibody, V domains shown)
VH: QVQLVQSGAEVKKPGASVKVSCKASGYTFTSYYMHWVRQAPGQGLEWMGIINPSGGSTSYAQKFQGRVTMTRDTSTSTVYMELSSLRSEDTAVYYCARADYDYWSGYGGLGMDVWGQGTTVTVSS
VL: not shown

- Kd (FX zymogen): 25.8 nM
B12: BIIB-12-900 (antibody, V domains shown)
VH: QVQLVQSGAEVKKPGASVKVSCKASGYTFTSYYMHWVRQAPGQGLEWMGIINPGGGSTSYAQKFQGRVTMTRDTSTSTVYMELSSLRSEDTAVYYCARSGGMYDRELGMDVWGQGTTVTVSS
VL: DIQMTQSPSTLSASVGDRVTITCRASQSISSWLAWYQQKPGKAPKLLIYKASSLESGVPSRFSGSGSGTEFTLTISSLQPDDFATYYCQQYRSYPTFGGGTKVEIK

- Kd (FX zymogen): 50.8 nM
B13: BIIB-12-1299 (antibody, V domains shown)
VH: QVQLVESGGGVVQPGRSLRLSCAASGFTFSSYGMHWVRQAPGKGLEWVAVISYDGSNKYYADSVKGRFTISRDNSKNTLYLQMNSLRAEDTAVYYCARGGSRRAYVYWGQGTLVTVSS
VL: EIVMTQSPATLSVSPGERATLSCRASQSVSSNLAWYQQKPGQAPRLLIYGASTRATGIPARFSGSGSGTEFTLTISSLQSEDFAVYYCQQLNNFPITFGGGTKVEIK

- Kd [1]: 16.8 nM
B14: BIIB-9-616 (antibody, V domains shown)
VH: QVQLVQSGAEVKKPGASVKVSCKASGYTFTSYYMHWVRQAPGQGLEWMGIINPSGGSTSYAQKFQGRVTMTRDTSTSTVYMELSSLRSEDTAVYYCARGGSKYFFDLWGRGTLVTVSS
VL: B13 VL with N32S, L91A, N92D, I96F

- Kd [1]: 13.3 nM
B15: BIIB-9-469 (antibody, V domains shown)
VH: QVQLVQSGAEVKKPGASVKVSCKASGYTFTSYYMHWVRQAPGQGLEWMGIINPSGGSTSYAQKFQGRVTMTRDTSTSTVYMELSSLRSEDTAVYYCARDLGYGRSYDFDLWGRGTLVTVSS
VL: B13 VL with Y49F, L91S, I96F

- Kd [1]: 2.31 nM
B16: BIIB-9-882 (antibody, V domains shown)
VH: QVQLVQSGAEVKKPGASVKVSCKASGYTFTSYYMHWVRQAPGQGLEWMGIINPSGGSTSYAQKFQGRVTMTRDTSTSTVYMELSSLRSEDTAVYYCARGPTDSSGYLDMDVWGKGTTVTVSS
VL: B13 VL with Y49F, L91H, N92D, I96P

- Kd (FX zymogen): 26.6 nM
B17: BIIB-12-927 (antibody, V domains shown)
VH: B15 VH with H35S, L100S, Y102R, G103K, S105Y, D107Y, F108M, L110V, R113K, L116T
VL: B13 VL with L91F, N93L, F94W, I96F

- Kd (FX zymogen): 38.8 nM
B18: BIIB-12-1305 (antibody, V domains shown)
VH: QVQLVESGGGVVQPGRSLRLSCAASGFTFSSYGMHWVRQAPGKGLEWVAVISYDGSNKYYADSVKGRFTISRDNSKNTLYLQMNSLRAEDTAVYYCAKLGGRWSSDFQHWGQGTLVTVSS
VL: EIVLTQSPATLSLSPGERATLSCRASQSVSSYLAWYQQKPGQAPRLLIYDASNRATGIPARFSGSGSGTDFTLTISSLEPEDFAVYYCQQSANWPPTFGGGTKVEIK

- Kd (FX zymogen): 42.6 nM
B19: BIIB-12-1291 (antibody, V domains shown)
VH: QVQLVQSGAEVKKPGASVKVSCKASGYTFTSYYMHWVRQAPGQGLEWMGIINPSGGSTSYAQKFQGRVTMTRDTSTSTVYMELSSLRSEDTAVYYCARSRRMWVGYFDLWGRGTLVTVSS
VL: B18 VL with S91R, A92L, W94L, P96L

- Kd [1]: 20.9 nM
B20: BIIB-9-1273 (antibody, V domains shown)
VH: B14 VH with G99D, G100T, S101G, K102G, F104A, L107I, R110Q
VL: B18 VL with S7Y, W94F, P96F

- Kd [1]: 21.1 nM
B21: BIIB-9-419 (antibody, V domains shown)
VH: QVQLVQSGAEVKKPGASVKVSCKASGYTFTSYYMHWVRQAPGQGLEWMGIINPSGGSTSYAQKFQGRVTMTRDTSTSTVYMELSSLRSEDTAVYYCAREPTFYASYFDLWGRGTLVTVS
VL: B18 VL with L4M, A51S, S91V, A92S, N93T, W94H, P96Y

- Kd (FX zymogen): 27.7 nM
B22: BIIB-12-920 (antibody, V domains shown)
VH: QVQLVQSGAEVKKPGASVKVSCKASGYTFTSYGISWVRQAPGQGLEWMGWISPYNGNTNYAQKLQGRVTMTTDTSTSTAYMELRSLRSDDTAVYYCARGSGHTTMFWGQGTLVTVSS
VL: EIVMTQSPATLSVSPGERATLSCRASQSVSSNLAWYQQKPGQAPRLLIYSASTRATGIPARFSGSGSGTEFTLTISSLQSEDFAVYYCQQANAYPPTFGGGTKVEI

- Kd (FX zymogen): 60.2 nM
B23: BIIB-12-934 (antibody, V domains shown)
VH: QVQLVESGGGVVQPGRSLRLSCAASGFTFSSYGMHWVRQAPGKGLEWVAVISYDGSNKYYADSVKGRFTISRDNSKNTLYLQMNSLRAEDTAVYYCARESGGHSYGMDVWGQGTTVTVSS
VL: B22 VL with M4L, S50G, A91F, A93D, Y94H, P96I
